In patent publication US20090291890A1 (published 2009):
Values joined by “and” are separate entries in the source; they are usually repeats but may differ in a detail not shown here. Equal values may be shown once.

Legend:
wild-type FVIIa (human) [1] = biological target: wild-type FVIIa (human)
[2] = biological target: Gla swap FIX/T128N/P129A/A175S/S222A/Q286R-FVIIa (human)
[3] = biological target: T128N/P129A/A175S/Q286R/M298Q-FVIIa (human)
[4] = biological target: {Gla swap FIX/K43I}/Q286R/M298Q/Q366N-FVIIa (human)
[5] = biological target: T128N/P129A/A175S/S222A/H257A/Q286R/M298Q-FVIIa (human)
[6] = biological target: T239I/Q286R/M298Q/H373F-FVIIa (human)
[7] = biological target: T128N/P129A/S222A-FVIIa (human)
[8] = biological target: T128N/P129A/Q286R/M298Q-FVIIa (human)
[9] = biological target: Gla swap FIX/A122N/G124S/A175S/S222A/Q286R-FVIIa (human)
[10] = biological target: T128N/P129A/T239I/Q286R/M298Q/H373F-FVIIa (human)
[11] = biological target: S222A/Q286R/M298Q-FVIIa (human)
[12] = biological target: A122N/G124S/A175S/Q366V-FVIIa (human)
[13] = biological target: Gla swap FIX/T128N/P129A/Q286R/M298Q-FVIIa (human)
[14] = biological target: T128N/P129A/Q286R-FVIIa (human)
[15] = biological target: T128N/P129A/A175S/Q366V-FVIIa (human)
[16] = biological target: T239V/Q286R/H373F-FVIIa (human)
[17] = biological target: Gla swap FIX/S222A/Q286R/H373F-FVIIa (human)
[18] = biological target: T239I/Q286R/M298Q-FVIIa (human)
[19] = biological target: Gla swapFIX/Q366V-FVIIa (human)
[20] = biological target: Gla swap FIX/Q286R/M298Q-FVIIa (human)
[21] = biological target: V158D/Q286R/E296V/M298Q-FVIIa (human)
[22] = biological target: T128N/P129A/A175S-FVIIa (human)
[23] = biological target: K109N/A175S-FVIIa (human)
[24] = biological target: {Gla swap FIX/Q44S}/Q286R/M298Q-FVIIa (human)
[25] = biological target: Q286R/H373F-FVIIa (human)
[26] = biological target: S222A/H257A/Q286R-FVIIa (human)
[27] = biological target: T128N/P129A/M298Q-FVIIa (human)
[28] = biological target: M298Q/H373F-FVIIa (human)
[29] = biological target: S222A/T239I-FVIIa (human)
[30] = biological target: T239I/M298Q/H373F-FVIIa (human)
[31] = biological target: T239V/Q286R/M298Q-FVIIa (human)
wild-type FVIIa (human) [32] = biological target: wild-type FVIIa (human); remark: listed apart in the source

Chain of antithrombin III (P01008 33-464): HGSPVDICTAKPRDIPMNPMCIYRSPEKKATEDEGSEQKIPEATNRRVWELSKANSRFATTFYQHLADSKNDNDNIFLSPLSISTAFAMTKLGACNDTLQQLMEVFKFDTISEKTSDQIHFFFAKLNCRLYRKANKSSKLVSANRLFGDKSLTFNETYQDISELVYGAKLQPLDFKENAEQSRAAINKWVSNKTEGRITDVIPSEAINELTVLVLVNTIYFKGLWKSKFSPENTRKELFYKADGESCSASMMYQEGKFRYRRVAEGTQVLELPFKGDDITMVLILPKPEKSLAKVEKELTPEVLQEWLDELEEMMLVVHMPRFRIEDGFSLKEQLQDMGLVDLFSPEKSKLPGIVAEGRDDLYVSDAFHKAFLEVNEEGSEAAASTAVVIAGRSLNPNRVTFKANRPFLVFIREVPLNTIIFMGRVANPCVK

## antithrombin III
wild-type FVIIa (human) [1]
  K0.5, TF-dependent, FVIIa from 293-F cells: 72.3 nM
  K0.5, TF-dependent, FVIIa from BHK-21 cells: 56 nM
  K0.5 mut/K0.5 wt, TF-dependent, 293-F cells: 1
  K0.5 mut/K0.5 wt, TF-dependent, BHK-21 cells: 1
[2]
  K0.5: 6.49 µM
[3]
  K0.5: 2310 nM
[4]
  K0.5: 404 nM
[5]
  K0.5: 3.21 µM
[6]
  K0.5: 370 nM
[7]
  K0.5: 401 nM
[8]
  K0.5: 284 nM
[9]
  K0.5: 5.52 µM
[10]
  K0.5: 317 nM
[11]
  K0.5: 308 nM
[12]
  K0.5: 336 nM
[13]
  K0.5: 508 nM and 325 nM
[14]
  K0.5: 1650 nM and 1740 nM
[15]
  K0.5: 333 nM
[16]
  K0.5: 631 nM
[17]
  K0.5: 587 nM
[18]
  K0.5: 1610 nM
[19]
  K0.5: 108 nM
[20]
  K0.5: 282 nM and 238 nM
[21]
  K0.5: 85 nM
[22]
  K0.5: 1390 nM
[23]
  K0.5: 2030 nM
[24]
  K0.5: 271 nM
[25]
  K0.5: 621 nM
[26]
  K0.5: 2590 nM
[27]
  K0.5: 144 nM
S222A-FVIIa (human)
  K0.5: 384 nM
[28]
  K0.5: 81.7 nM
[29]
  K0.5: 1150 nM
[30]
  K0.5: 179 nM
K109N-FVIIa (human)
  K0.5: 330 nM
[31]
  K0.5: 3.63 µM
H257S-FVIIa (human)
  K0.5: 723 nM
wild-type FVIIa (human) [32]
  K0.5, TF-independent, FVIIa from 293-F cells: 2260 nM
  K0.5 mut/K0.5 wt, TF-independent, 293-F cells: 1
  K0.5 mut/K0.5 wt, TF-independent, BHK-21 cells: 1
